Data: the DeepSol protein solubility set

Test: soluble on expression in E. coli; label from the status in PepcDB or PDB records

| Sequence | soluble on expression in E. coli |
| --- | --- |
| MPANELFGDSDPEGDEIFERVRKVQPKSINVTENQKVDPMRKVKIELQAVLVAEKIPISTEEIRRRLLDSYGACPDPKRYNCSTLDDLLQACSESIVHTFGRDGIHRYGPRTTEANQDIIEMVQQQSSSKRPARSFLGSGATNNLSTHGSSFRAFRGPYASEEIAKSRGTPEQFKARHKLGPAKTISRVKNLAEVLKEYADEIGVSHPDEPNRKIVTLAALANKFKQLYCLPAWGKNISESELYIQLNVPPFNEYLHFWRLSEKGDIFVDCIDRDNADPTQKSEQNPSADVSIQSESFGGKSSASAFEQSVVSAPSTIRDQTSDSFDGFNSFEVPPENGSKDSKIFNSNQESIDDYPGNAISRDRTADMTDIALRFGTVSVASQQCPVSSSLVPQNGILRQSRAQEDDNNTSILTIQSSRRNHSVLRHRTIKPRNPTQNLAEVVKTHGSIPYEALSDCDKIIVDLGKNIFKVYATQPGEMMVRLCDPHVDTTTLPLLENNLRDPVESDLRWMTLGNSHIKKQSVKVVKPAMFIAPRGFLLILKDEEREEMDVEKVATMGNILRAVMVAPIVELQRETVRTGSAAVYVYRQGAEVRYYRVLIVGQAKQDGEVLVLLADVDDQYFVDVHLSHLFPIPEEASFKHFPSNVVFATLHGVLGLTLSEQDVMFENIDNDDTKRFVGGYFHGNDDRILNIDMVWKNERGQFEWLSQIVKRRGAVTSSDANIIHFPHSALDVIKSVGPDCSVCFVDYSVRDESATSSLMESTRIVHDSRESMTTTYVGEMPSPIIEEIDATSSFDPKLLNLHSLFDKLIEEQNVTMIVGMFQFVRSLKDLFGDNNEWERLLTYMLTTGKNNNIRL | not soluble |
| MHRGITVQTSDLDDGVTGVVGKVYIEASPKHVWAAITDYNNHKSFVPKLIDSGLISDNGREQVMFERGKTGIFLFRKTVYIKLSLQGEYPKRLDFHQIEGDFKVYEGDWLIERASDGKGSILTFRAKIKPDFFAPAMFVRKVQQNDLPLEHHHHHH | soluble |
| MGITVMARIDNYEQRFGGIGRLYTPDSLARLRQAHICVIGIGGVGSWVVEALARSGIGELTLIDMDDICVTNINRQLPAMSGTIGKLKTEVMSERVKLINPECTVNIIDDFISPENQSDYLNRGYDYVIDAIDNVKTKASLIAYCKRNKINVITIGGAGGQTDPTQIQIADLSKTIQDPLLAKVRSVLRKDYNFSQNPKRKFSIDAVFSTQPLIFPQMTEGCSTSATMNCANGFGAATMITATFGFFAVSRVIDKLLKKKSLEHHHHHH | not soluble |
| MASYKQNLPPSALIKQQVNVADKKSKAEVQRDRQLEEDRKAGTAPAMVDVQTGRDINPHIPMFISQNPWYVPSEGPTLKHQRPHEEREKKMTQIHEWYQKGTTGKSATKFRKGACENCGAMGHQKRDCFDRPRKSNAKETNDNIAEDDYVQPNLTLGFDAKRDRWNGYDPSTHKQVIEDYEHLEEARKVVREHEMKEGEVEPATTEDGAPKDEDMYAEDADMAGVSVDMDSRTRITVRNLRIREDTAKYLYNLAENSPYYDPKSRSMRENPFAGVAGKELEAARFSGDNFVRYSGEVTAANEAQVFAWQATRGGVYAHSIAEPTKLEALKKEYEKEKSTLKNETQKELLDKYGGGEHMERPADELLLAQTESYIEYNRKGKVIKGKEKVAISSRFKEDIYPQNHTSVFGSFWREGRWGYKCCHQFVKNSYCTGKQGIEAETSAAKGTTTSNEEIFKVPKLVEKTEVKEEKEKEDSIKDEVAEENSDNDNDEEKEKVSEKSISPSPPSDDEEKEKEREKERLIEKERRERDQRRRDKKREKRERKKAKLGKRKRRHRDSDDESDPSSGSGSESDSDEEMRKAMKKAKREKAEGMKAAREGDRGRKYNTDYSNTAPNEKEMEAYRVTSVHSADPMAAYMNSKFEKKHTK | not soluble |
| MGSDKIHHHHHHMTKLAIMSDLHIDLNHFSTFETKTLINLLKKEKIDHLHIAGDISNHFTKDTLPFINNLKKHIKLSYNLGNHDMLDLTETEIQRLDFQTYRFDKKMLLAFHGWYDYSFSNNRDIKDVEKLKKTFWFDRRLKRPNNDVTIQASILKRLDEILAKVDSSNIIIAMHFVPHKQFTMTHPRFSPFNAFLGSQAYHDLFQKYHIKDVVFGHAHRSFGDVKIGETTYHSRPLGYIREWNLTIDFVNQNPNHNPNLTWNLSKRYNAVKHLDSFENYRKKYFEDELRNSMTIFDC | not soluble |
| MTSRPSSDQTWQPIDGRVALIAPASAIATDVLEATLRQLEVHGVDYHLGRHVEARYRYLAGTVEQRLEDLHNAFDMPDITAVWCLRGGYGCGQLLPGLDWGRLQAASPRPLIGFSDISVLLSAFHRHGLPAIHGPVATGLGLSPLSAPREQQERLASLASVSRLLAGIDHELPVQHLGGHKQRVEGALIGGNLTALACMAGTLGGLHAPAGSILVLEDVGEPYYRLERSLWQLLESIDARQLGAICLGSFTDCPRKEVAHSLERIFGEYAAAIEVPLYHHLPSGHGAQNRAWPYGKTAVLEGNRLRW | soluble |
| MKFSTIFGATTVMTAVSAAAVSSVMTTKTITATNGNNVYTKVVTDTADPIISYSTTRTVVVSNSDATYTKVVTEGPDTTSEKSTTKTLTLTNGSGSSTNLYTKTVTQAVESSTSSSSSSSSSSSSASSSGAAPAAFQGASVGALALGLISYLL | soluble |
| MGHHHHHHSHMATSATSPHAPGFPAEGRCGYYVEKKKRFCRMVVAAGKRFCGEHAGAAEEEDARKRILCPLDPKHTVYEDQLAKHLKKCNSREKPKPDFYIQDINAGLRDETEIPEQLVPISSLSEEQLEKLIKKLRKASEGLNSTLKDHIMSHPALHDALNDPKNGDSATKHLKQQVCLGYSNY | not soluble |
| MIDTVSVVLFSKKSHIKIARSVLRDFLQMHESSDSLIVDMEIVLGEILANVIKHTYKNDETKRIIVSYTLKDEVFHMLVRDFGPPVDPTRLKPMPPDLENPREGGYGFYIISRVTDEFRVRPLRNGNLTVVKKKLR | soluble |
| MGGKSNGEKKYIVGFKQGFKSCAKKEDVISEKGGKLQKCFKYVDAASATLNEKAVEELKKDPSVAYVEEDKLYRALSATS | soluble |
| MLRKGVSFVGQAVQQTLKTQKNLRIQRFSATASQSSEEVNYEIRKDGKRLRGADYEEIVLTSIAGEDKTQIPKGAFDVLLKEYDDLQAESLDFKDKYQRSLAETENVRRRGIKQTDDAKVFAIQSFCKDLLEVSDILDIAVKSVKPEDLESGGKALKDLFEGVSMTRTVMAKTFAKHGLVTVDPTNEKFDPNLHEAVFQIPSANAKQPVGHIEVCTKIGYSLKERPIRPAQVGVVSK | not soluble |
| MGSDKIHHHHHHMEEVINGILIREVETKNIMTKSSLPVGGYSVNPYVGCTHACKYCYASFMKRFTGHKEEWGTFLDVKHWPEIKNPKKYAGQRVVIGSVTDGYNPQEEQFGNTRKLLEQLIGSDADILICTKSDLVVRDIDLLKKLGRVTVSWSINTLDENFKNDMDSASSIERRISAMKQVYESGIRTVCFVSPVFPGITDFEAIFERVKDQCDLFWLENLNLRGGFKKTIMDYITGQYPDLVPLYDEIYNKHNRSYFEALEVKAEKMAKKYDCAFVDNEMPYGRVPQGHPVIVDYFYHEEIRGTENTGKRNR | not soluble |
| MGSDKIHHHHHHMPTNVTAEYLAAEEEYRNAKTIPEKIRALEKMYALVPKHKGTEKLRLQIKRKLAELRKELEKQRQQRKGGGYSLAVKKEGAAQIVLVGLPNVGKSELLKALTGVDVESADYPFTTTEPVPAMLNYKDVQIQLVEVPGLIEGAALGKGMGPQLLAVVRNADAIAIVVDLSEDPVRQMNILLQEFERAGIKVNKKKPKVEIRKTPSGGIVINGIENIKGDIDEVMKMLREEKIHSAEITVMEPVTLEEFADALDDSLVWKKAIIIANKGDAPGSRANYEKLVKAFGERFKIIPVSAKKRINLEAVKEAIYEIADIIRVFTKSPGEEPAYPPIALRKGATVQDVAERIHKDLVKNFKYARVWGKSVKFPGQRVGLDHVLEDGDIVEIHAR | not soluble |
| EQIDRWNQVSEYIERLNVLEDNGSNTLIIASGIAYPYVKEITEEEGLNANIFRLVTPVPIPEKSILDSMTRVKKVLVVEENDPVVELQLSQLMVKNGIMKELHGKDLVSPIGELTLEKVRGAIMGFFGKEYVRSYPDDVSLRTRPPALCPGCPHRSSFYDIKKGLSKVSMQKAFFSGDIGCYTLGALPPFNEQDSATNMGSSVGISNGVFRATGQIPVSIIGDSTFFHSGLQGVANAVYNGTPEIIIVLDNRSTAMTGQQPSPSTHISIENVARAMGIDFVDTFDPFDVKEGSDAVQKAAEYVKENKKPALIVAKRACALEVLEKVGDYTMKAEVDLEKCTGCSICYDFFTCPSILPLSNKKAFIDDSCIGCGACVEVCPFNAIK | not soluble |
| MRADELPSKEEIEMHKDSCKYFSNDTEEEETEDEEENGEVAHAKAVAEEFGKSSKSKNVSSSMELDDEVAEGLKELDMDNYDEEDDGIEIFSSGRGDLYYKSNEMDPYLKRNDDHDDDSDDDPPILPTDLVIVCAMTDDKEANRLDVYVSEDTSHGSPNMYNHHYRIIPAIPLCTAWLDCPLKGGERGNFLAVGSDGTPTIEIWDLDAWFDMLPCVQLGGQNKEGNYKQGSHTRSVLGLAWNKEFRNILASASADKKVKVWDVATGTCKITMEHHTKEVQAVAWNHYAPEVLLSGSFDQTVVLKDGRQPSHSGFKWSVMSDVESLAWDPHSEHSFVVSLEDGTVKGFDVRQASISASESNPSFTINGHDEAATSVSYNISAPNLLATGSKDRTVKLWDLSNNEPSCIATHNPNAGGLFFIAFSPDNPFLLAMGGVMGELKLWDTLSDTNVSSRYGSREVRP | soluble |
| MGSDKIHHHHHHMLLTRNEPFTAEKIQAKADILELVQFERFCRDNALWDAMETCFTKDSNVKISWFQGTGHGFIEASKKMTNPAPHKIYNTQVWIKNDRAVAIMQATIQTRTIINGVEMELNSDAKLVTRVERIDGKWYINAFEGVYEKDSLMPVVPSKNADVPAELLANFRKSYACLALSLTLNGYEIDNNLPGIDRPEQVTQFFKEADEWLLQ | not soluble |
| MTSPDEHSPEKKDSENEVVPAGPKQKAKCLEKETKSPPKPSDLSKAERKEKNNKTARRDVKSSRGNVKTMKPSVVKVEERSSRSKKSIREGKLKNFSLPKDEPEITALQLDAELTKSARLMEEYKIALEQIITTLVSMMRRGNGTVDMENIVSDKGQTAAEKLNKEVQLTQNYWKTDTKLQPAMNDAIAKNTVVLAAAERNLQTQGPQHLKRVKKFLYGQYPKYVDMKRDLLKIVKQQKPEAQSVRDESAQAISKFIKEKYVNAKIYASRRNSKCFRRVELFPSYIRFYLASNR | soluble |
| MTVSPSYDAIVIGSGIGGLVTATQLVSKGLKVLVLERYLIPGGSAGYFEREGYRFDVGASMIFGFGDRGTTNLLTRALAAVGQALETLPDPVQIHYHLPGGLDPKVHREYEAFLQELIAKFPQEAQGIRRFYDECWQVFNCLNTMELLSLEEPRYLMRVFFQHPGACLGLVKYLPQNVGDIARRHIQDPDLLKFIDMECYCWSVVPADLTPMINAGMVFSDRHYGGINYPKGGVGQIAESLVAGLEKFGGKIRYGARVTKIIQENNQAIGVELANGEKIYGRRIVSNATRWDTFGALTGDQPLPGKEKRWRRNYQQSPSFLSLHLGVEADLLPEGTECHHILLEDWDDLEKEQGTIFVSIPTLLDPSLAPDGYHIIHTFTPSWLESWQNLSPQEYEAKKEADSGKLIDRLEAIFPGLDRALDYMEIGTPRSHRRFLGRQNGTYGPIPRRRLPGLLPMPFNRTAIPGLYCVGDSTFPGQGLNAVAFSGFACAHRLAVDLGVRLEHHHHHH | not soluble |
| MAHHHHHHMFPGEQDITGSQLAEYVREQVQASANLVVYVEDTHCDVDTIGLRRLHATIGGTAVFSGYDLYRRSKYEKVEQGLDELWTSNVVLEASAIGSLSALCDNVRMVRRHEGCTIALAPQSLMHNVAFAVHLAVGVGARFLCVGGLMDVVQCEVVSQYLYVQDELEQSRLLLEEAPKPPCAVLPDAPTDTVPEIKRRLDKKKRKK | not soluble |
